For this data set the following is noted: Bacillus subtilis (strain 168); pH 7.2; Thermal; CD; TES-KOH 21 mM; KCl 4 mM; reversible: No; whole UniProt chain shown.

These results are taken from FireProtDB (doi:10.1021/bi047926u).

Usually Tm stands for the temperature at the midpoint of the melting transition.

“And” between values parts separate entries of the source, which are not always exact repeats. Equal entries are not always repeated.

B1: Manganese-dependent inorganic pyrophosphatase wild type, P37487 (protein)
chain: MEKILIFGHQNPDTDTICSAIAYADLKNKLGFNAEPVRLGQVNGETQYALDYFKQESPRLVETAANEVNGVILVDHNERQQSIKDIEEVQVLEVIDHHRIANFETAEPLYYRAEPVGCTATILNKMYKENNVKIEKEIAGLMLSAIISDSLLFKSPTCTDQDVAAAKELAEIAGVDAEEYGLNMLKAGADLSKKTVEELISLDAKEFTLGSKKVEIAQVNTVDIEDVKKRQAELEAVISKVVAEKNLDLFLLVITDILENDSLALAIGNEAAKVEKAFNVTLENNTALLKGVVSRKKQVVPVLTDAMAE
Consider B1, for which the Tm was 50 °C and 46 °C.
